From US20130059772A1, “Use of Repeat Sequence Protein Polymers in Personal Care Compositions” (DANISCO US INC., priority 2003, published 2013)

Tests used:
elastase = test: Elastase inhibition assay (fibroblast lysate, STANA substrate); assay type: biochemical, human; conditions: positive control
Description: The RSPP test materials were also tested to determine their effect(s) on elastase activity. In these experiments, human dermal fibroblasts were used as a source of the elastase enzyme. This enzyme was partially purified from the fibroblasts by lysing the cells in an elastase buffer and retaining the soluble portion of the lysate. Portions of this fibroblast lysate were then incubated with test materials and a synthetic elastase substrate, Suc-(Ala3)-p-Nitroaniline (STANA). Elastase acts upon this substrate to release p-nitroaniline, which can be detected spectrophotometrically by measuring the absorbance at a wavelength of 405 nm. […]
The fibroblasts were washed twice with 15 ml of phosphate buffered saline with each wash removed via aspiration. […] The protein concentration of the fibroblast lysate was determined using the Pierce BCA Protein Assay kit (see below for details) and the fibroblast lysate was stored at −75° C. until used (for up to 1 year).
Upon determining the protein concentration of the lysate, a small sample was obtained and the elastase activity of the lysate was determined at 1×, 0.5× and 0.25× concentrations. The activity was determined for each of the different concentrations in exactly the same way that the uninhibited sample was treated in the elastase assay (see below). […] After 1.25 hours, the well plate was removed and read in a 96-well plate reader at 405 nm. […]

[1] = UVB protection, initial MTT assay (material applied after UVB); conditions: human, cultured dermal fibroblasts
Description: (§1) In these experiments, the test material was tested at six concentrations with two duplicate sets of cells prepared. […] Changes in cell viability were then determined 48 hours post material application via an MTT assay, as described above.
(§2) Fibroblasts were seeded into the individual wells of a 96 well plate in 100 μl FGM, and incubated overnight at 37±2° C. and 5±1% CO2. On the following day, the media were removed via aspiration to eliminate any non-adherent cells and replaced with 100 μl of fresh FGM. The cells were grown until confluent, with a media change every 48 to 72 hours.
(§3) An UVLM-26 lamp was used as the source of UVB light. UV light intensity was measured using a UVX radiometer coupled to a UVB sensor probe (UV Products) to determine the time required to deliver an approximate dose of 50 mj/cm^2. Prior to UVB exposure, the FGM was replaced with 100 μl PBS. After exposure, the PBS was removed and replaced with FGM supplemented with either the test materials, 20 μM Trolox, or left unsupplemented. A duplicate set of cells was also prepared and treated as described above, with the exception that they were not exposed to UVB light. […] The cells were allowed to incubate with the test materials for 48 hours, and then changes in cell viability were determined via an MTT assay. […]
(§4) After the 48-hour incubation, the cell culture medium was removed and the fibroblasts were washed with PBS to remove any remaining test material. […] The 96-well plate was then read at 540 nm using isopropyl alcohol as a blank.
(§5) The mean MTT absorbance value for the negative control cells (non-UVB exposed and non test material treated cells) was calculated and used to represent 100% value for cell number. The individual MTT values from the cells undergoing the various treatments was then divided by the mean value for the negative control cells and expressed as a percent, to determine the change in cell viability caused by each treatment. MTT scores for each treatment are expressed as means±the standard deviation of the mean.

[2] = test system: cultured dermal fibroblasts; test: as above; conditions: Homo sapiens, Fibroblast, light or radiation study, 48 h, read-out: +UVB Percent Viability
Description: as §1, §2, §3, §4, §5

elastin = test: Elastin assay (Fastin colorimetric assay of culture media); assay type: cell-based, human; conditions: summary in words
Description: Elastin is released by fibroblasts (soluble elastin) into the extracellular space where it is then cross-linked to other elastin proteins to form an extensive network of fibers and sheets (insoluble elastin). Soluble elastin can be readily measured from cell culture medium via a colorimetric assay.
The test materials were tested in triplicate.
In these experiments, the Biocolor Fastin Elastin Assay kits were used. A 50 μl aliquot of sample material (cell culture medium for soluble elastin) was mixed with 1.0 ml of cold Fastin Precipitating Reagent in a 1.5-ml microcentrifuge tube. […]
To release the elastin-bound dye, 1.0 ml of Fastin Destain reagent was added to each microcentrifuge tube. […] The absorbance of this solution was measured by a plate reader at 490 nm (200 μl volume read).
An elastin standard curve was generated using 12.5, 25, and 50 μg aliquots of an Elastin Standard into microcentrifuge tubes (in duplicate). These samples were treated as described above (Elastin Assay) and the absorbance values were used to generate a standard curve of known concentrations. To derive the standard curve for the elastin assay, the absorbance was plotted against the elastin concentration in μg/ml for the standards. […] Mean absorbance values for the test materials and untreated samples were then used to estimate the amount of elastin present in each sample.

[3] = test system: Fibroblasts (HDFn Cell Line); test: Initial pilot cell viability dose response (MTT assay); conditions: for cell viability, percent of untreated cells: 48 hours
Description: Initial screening was conducted to identify a test range suitable to determine the effect of a broad range of test material concentrations on cell viability. […] Cultured fibroblasts were exposed to the test materials for 48 hours and then changes in cell viability were determined using an MTT assay (i.e., a colorimetric analysis of the metabolic activity of the cultured cells, described in greater detail below).
The purple crystals are extracted from the cells with isopropanol and the amount of crystal formation quantified spectrophotometrically. […] A decrease in color intensity can be a sign of toxicity.
Fibroblasts (Cascade Biologics, HDFn Cell Line, lot#1C0914) were seeded into the individual wells of either a 96-well plate (for the initial pilot work to determine concentration effects on cell viability) in 100 μl of Fibroblast Growth Media (FGM) or in 12-well plates (for the measurement of collagen, elastin and MMP-1) in 1.0 ml of FGM and incubated overnight at 37±2° C. and 5±1% CO2. On the following day, the medium was removed via aspiration to eliminate any non-adherent cells and replaced with fresh FGM. The cells were grown until confluent, with a media change every 48 to 72 hours. Upon reaching confluency, the cells were treated for 24 hours with Dulbecco's Modified Essential Media (DMEM) supplemented with 1.5% FBS to wash out any effects from the growth factors included in the normal FGM. After this 24-hour wash out period, the cells were treated with the test materials at the specified concentrations dissolved in DMEM with 1.5% FBS. Untreated cells (negative controls) received DMEM with 1.5% FBS. The cells were incubated for 48 hours and at the end of the incubation period cell culture medium was either discarded (pilot work) or collected and stored frozen at −75° C. The test materials were tested in triplicate.
After the 2-day incubation, the cell culture medium was removed and the fibroblasts were washed twice with PBS to remove any remaining test material. After the final wash, either 100 μl (96-well plates) or 300 μl (12-well plates) of DMEM supplemented with 0.5 mg/ml MTT were added to each well and the cells were incubated for 1 hour at 37±2° C. and 5±1% CO2. After the incubation, the DMEM/MTT solution was removed and the cells were washed again once with PBS and then either 100 μl (96-well plates) or 1 ml (12-well plates) of isopropyl alcohol were added to each well to extract the purple formazin crystals. For the 12-well plates, two hundred microliters of the isopropyl extracts was transferred to a 96-well plate. The 96-well plates were read at 540 nm using isopropyl alcohol as a blank. The mean MTT absorbance value for the negative control cells was calculated and used to represent 100% value for cell viability. The individual MTT values from the cells undergoing the various treatments were then divided by the mean value for the negative control cells and expressed as a percent, to determine the change in cell viability caused by each treatment.

## CC(C)C[C@H](NP(=O)(O)O[C@@H]1O[C@@H](C)[C@H](O)[C@@H](O)[C@H]1O)C(=O)N[C@@H](Cc1c[nH]c2ccccc12)C(=O)O [Phosphoramidon, phosphoramidon, reference compound]
elastase; 30 nM
  Percent Inhibition: 43%
elastase; 100 uM
  Percent Inhibition: 96%

## Cc1c(C)c2c(c(C)c1O)CCC(C)(C(=O)O)O2 (stereo not shown) [Trolox]
[1]
  viability at 48 h, 20 µM: 120 ± 11%
[2]
  viability at 20 µM: 77 ± 9%

## GC2596-26-A: monodispersed 13-mer SELP47K RSPP (Example 1)
elastin
  effect on elastin synthesis: excellent increase
[3]; 0.0014%
  cell viability, percent of untreated cells: 99 ± 1%
[3]; 0.007%
  cell viability, percent of untreated cells: 101 ± 5%
[3]; 0.014%
  cell viability, percent of untreated cells: 99 ± 10%
[3]; 0.07%
  cell viability, percent of untreated cells: 96 ± 6%
[3]; 0.14%
  cell viability, percent of untreated cells: 101 ± 4%
[3]; 0.5%
  cell viability, percent of untreated cells: 171 ± 4%
[3]; 1%
  cell viability, percent of untreated cells: 138 ± 7%
[3]; initial dose response, summary in words
  effect on the number of viable cells: strongly stimulate increases in the number of viable cells
